Measurements: patent US20110065592A1

Molecular target: RNA Pol II (UniProt P24928)
Assay: cell-based or functional assay

cT of real-time PCR for GAPDH gDNA released from wells coated with the RNA Pol II antibody, compared with wells coated with the unspecific anti IgG antibody: < 5 cT
delta between the cT's obtained using the specific RNA Pol II antibody and the unspecific anti-mouse IgG antibody (all three washing procedures): > 0 cT
delta between the cT's obtained using the specific RNA Pol II antibody and the unspecific anti-mouse IgG antibody (washing with LS buffer and TE): 3.3 cT
Substance: anti RNA Pol II antibody (Santa Cruz sc-899)
